According to the supplement of paper PMC9170038:

System: MS2 coat protein
Assay: apparent KD of MS2 coat protein; designed switch direction (-1 OFF switch, 1 ON switch): -1; higher = weaker reporter binding
Summary of the method: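 On Illumina chips, designed RNA switches with common flanks were made by stalled E. coli RNA polymerase. Titrations with SNAP-549-labelled MS2 coat protein, doubling from 0.7 or 1.5 nM to 3 µM, were done with no input, with 200 uM small-molecule ligand, or with an oligonucleotide input. Apparent KD is the median per design over clusters, from curve fits of normalised cluster fluorescence.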

[1] = Eterna round: R95, input ligand: microRNA oligo, concentration not stated
[2] = input ligand: microRNA oligo, concentration not stated
[3] = Eterna round: R95, input ligand: FMN 200 uM
[4] = Eterna round: R95, input ligand: none

Sequence	apparent KD of MS2 coat protein (input ligand: FMN 200 uM)	apparent KD of MS2 coat protein (input ligand: none)	apparent KD of MS2 coat protein [1]	apparent KD of MS2 coat protein [2]	apparent KD of MS2 coat protein [3]	apparent KD of MS2 coat protein [4]
CUUUGCACGCUGCGGUCCUACAUGAGGAUCACCCAUGUGGUCUGGUGGCGUGGGUCGCCGGACUUGGCUCGUCUUGA [salish99_S_TOV1_R5_040] (Eterna round: R97, puzzle: Sensor, turn-off variant 1)	18.5 nM	18.4 nM	–	–	–	–
AGCCAUCUUGUGAGGAUAUGCCCUGGUCAAAGCCGGUAGAAGGUACAUGAGGAUCACCCAUGUGAACUAAUCUA [Eternabot (L1) Solution 90] (Eterna round: R97, puzzle: Brourd's mod of Exclusion 4)	14.1 nM	16.2 nM	–	–	–	–
AAAUUGGUAGAGGAUAUCGUACAGGAAACACUGCGAGAAGGCUGCACAUGAGGAUCACCCAUGUUCAGUUGCGA [EX6 #39] (Eterna round: R97, puzzle: Exclusion 6)	17.3 nM	14.5 nM	–	–	–	–
CUUUUGUGAGGAUAUCAGUAGUUAAAUAAUAAAAUUACUACUGAGAAGGCACAUGAGGAUCACCCAUGUUCCUC [Mat - Exclusion 4 - Mod of Salish - D70] (puzzle: Exclusion 4)	–	–	35.5 nM	–	–	–
ACAUGAGGAUCACCCAUGUGACCACAAUGGCUGAUGUAGAAACAGGAUAUUCGUGAAUAUCUAACGAAGAAGGGUUAUGACUGG [Deportation 64 - Jieux - Exclusion NG 3] (Eterna round: R96, puzzle: Exclusion NG 3)	62.9 nM	72.1 nM	–	61.7 nM	–	–
AGUCGGUCAGGAUAUGCAAUUGUGGACAUGAGGAUCACCCAUGUAACGUGGGCCUGGUUUGUAGAAGGGACGUGCA [EX5 #89] (Eterna round: R97, puzzle: Exclusion 5)	105 nM	89 nM	–	–	–	–
CUGCUGGAGCGGUGCUUUGGUCGUACAUGAGGAUCACCCAUGUAGGAUAUGGUAAAAUUUGCUUGCUAGAAGGAUAGAGUGGUC [salish99_ExNG3_r04_614] (Eterna round: R96, puzzle: Exclusion NG 3)	96.9 nM	61.3 nM	–	42.4 nM	–	–
UUUAUAAUUUCAAUCUUCGCUGGCAAACUUACGCCAGCCACAUGAGGAUCACCCAUGUUUUUUGUUCGUUUUACUCU [Tetevea] (puzzle: Sensor v3, turn-off variant 2)	–	–	64 nM	–	18 nM	22.5 nM
UCGUGGUUACUCUGCAGUUUCCUGAGCGGAGGCUCUUUGACAUGAGGAUCACCCAUGUUGCUUUUUGCUCAUCUUAA [JR_SV3TOV2_Sub041] (puzzle: Sensor v3, turn-off variant 2)	–	–	15.8 nM	–	14.2 nM	12.4 nM
CAACGUGAGCAGGAUAUACAGAGGGAGACCUGGGUAGAAGGGCUCACAUGAGGAUCACCCAUGUUAGCCAAAGA [Eternabot (Original) Solution 47] (Eterna round: R97, puzzle: Exclusion 6)	33.3 nM	18.8 nM	–	–	–	–
GGUUCCUGAGGAUAUACAUGAGGAUCACCCAUGUCUAUAUCAGCAGACGAUGACACAAGUAGAAGGUAGAGGGC [Eternabot (L2) Solution 48] (Eterna round: R97, puzzle: Exclusion 3)	15 nM	10.4 nM	–	–	–	–
UGUGUGAGACAGGAUAUGCUGGAUGUGAGGCGGGUAGAAGGGUCUACAUGAGGAUCACCCAUGUGGCCGGUUGG [Ex6 #70] (Eterna round: R97, puzzle: Exclusion 6)	19.4 nM	17.3 nM	–	–	–	–
GCGCCAUCGUGAGAUGGCGUACCGACAUGAGGAUCACCCAUGUAGGAUAUCGAUUGCUUUGCAGUCGAGAAGGGCAUGAUAAGU [JL ENG3 3.77] (Eterna round: R96, puzzle: Exclusion NG 3)	20.9 nM	21.4 nM	–	13.4 nM	–	–
AGAUCUGCAGGAUAUGGUUUUCGUGACAUGAGGAUCACCCAUGUCUUAUGUCCGCAUGUUUCAGAAGGGCAGGACG [Eternabot (L1) Solution 71] (Eterna round: R97, puzzle: Exclusion 5)	74.3 nM	27.8 nM	–	–	–	–
GCAUCUCGCAAGGGUACCCACAUGAGGAUCACCCAUGUGAUGAUAAACAGGUUUCGUGCGUCCGUUUUAUCCACUUU [Eternabot (L2) Solution 18] (Eterna round: R97, puzzle: Sensor, turn-off variant 1)	737 nM	865 nM	–	–	–	–
AUGUGUAUAGUGAGGAUAUUGCCCAGGAAAUAGGGCAAGAAGGCACAUGAGGAUCACCCAUGUGGAUGUUCUGA [Eternabot (L2) Solution 85] (Eterna round: R97, puzzle: Brourd's mod of Exclusion 4)	412 nM	37.5 nM	–	–	–	–
AGGUGUAGAGGAUAUCUCUUCUCUCACAUGAGGAUCACCCAUGUCCUAAAGUCCAAGGAGAGAGAAGGCUACACCA [Omei Ex5 D4] (Eterna round: R97, puzzle: Exclusion 5)	107 nM	110 nM	–	–	–	–

Sequence	apparent KD of MS2 coat protein (input ligand: FMN 200 uM)	apparent KD of MS2 coat protein (input ligand: none)	apparent KD of MS2 coat protein [1]	apparent KD of MS2 coat protein [2]	apparent KD of MS2 coat protein [3]	apparent KD of MS2 coat protein [4]
UGAGUGGUGCGAGGAUAUACAUGAGGAUCACCCAUGUAAACGUGUGAGGCAAAGCCUCACACGAUGUAGAAGGCGCACUACUCU [Mat - Exclusion NG 2 - Mod of JL - D14] (Eterna round: R96, puzzle: Exclusion NG 2)	24.7 nM	19.5 nM	–	12.4 nM	–	–
CAUUCAGAUGUCAGGAUAUCUGCGGGUAGGGCCGAAGAGAAGGGACAUGAGGAUCACCCAUGUACACUGCUAGA [BmEX4 B.28] (Eterna round: R97, puzzle: Brourd's mod of Exclusion 4)	22.9 nM	16 nM	–	–	–	–
AACCAGCGAGGAUAUGCUUGCGCGUGUUCUGGUUAUAAUCGACUUGAGGAUCACCCAAGUAGAAGGCGCUGCCG [EX2 #52] (Eterna round: R97, puzzle: Exclusion 2)	179 nM	64.2 nM	–	–	–	–
CUAAAAGUCGAGGAUAUGCACCGUUUCGCUGACGCAGAAGGCGACACAUGAGGAUCACCCAUGUCGGUACGCGA [salish99_ex6_r004_456] (Eterna round: R97, puzzle: Exclusion 6)	27.7 nM	23.5 nM	–	–	–	–
UUUUUACAUGAGGAUCACCCAUGUCAGGAUAUCGUUAUAUUUUAUUAUUUUAUUUUUUCGAGAAGGGACUAUUA [My solution] (puzzle: Exclusion 1)	–	–	74.6 nM	–	–	–
AGGUAGUCAGGAUAUUAAGAGUAGCGGGAUAACGCUACGAGUGAGAAGGGACAUGAGGAUCACCCAUGUUUUAA [JR_Ex4_Sub071] (Eterna round: R97, puzzle: Exclusion 4)	23.4 nM	23.2 nM	–	–	–	–
AGUCGGCGAGGAUAUACAUGAGGAUCACCCAUGUGAGAGAUAAAAGUGAGUUAGACAAGUAGAAGGCGCUGACA [JL Lego Mod 9] (Eterna round: R96, puzzle: Exclusion 3)	–	–	–	46.4 nM	–	–
AAACCUAUAGGAUAUACAUGAGGAUCACCCAUGUUGCGAUUUUUUAGGUAACAGAUCCGUAGAAGGGUAGGUUA [Anzaoror] (puzzle: Exclusion 3)	–	–	24.4 nM	–	–	–
AAUUAAUAUCAGGAUAUGACGUGCUUCGGCACGUCAGAAGGGAUGACAUGAGGAUCACCCAUGUGAUCAAUUAA [E6/1-A1] (Eterna round: R97, puzzle: Exclusion 6)	105 nM	28.6 nM	–	–	–	–
GAAGAGACAGGAUAUACAUGAGGAUCACCCAUGUGAGUAAGGUAGAGGCGGAGUAGAUGUAGAAGGGUCAAAGA [JR_Exclu3_Sub015] (puzzle: Exclusion 3)	–	–	40.5 nM	–	80.5 nM	42.8 nM
AAGGAACAUGAGGAUCACCCAUGUAAGGAUAUGCAAAGAGAGAAAGAAGAAGGAGAAAGCAGAAGGUACAAGGA [JR_Exclu1_Sub072] (puzzle: Exclusion 1)	–	–	36.2 nM	–	47.3 nM	65.8 nM
ACAUGAGGAUCACCCAUGUCUGGCUGGUCCGUCUCGGCUGUCGAGGAUAUGGCUCGGUGUCCGCGCUAGAAGGCGGGAGCUGGC [Aenatbe mod 80] (Eterna round: R96, puzzle: Exclusion NG 3)	75.2 nM	89.3 nM	–	46.2 nM	–	–
UUUGCAAGCUUUAGAUCCCACAUGAGGAUCACCCAUGUUGCUGCCGUGAGGUAGCAUUUAACUAAUGCUCGUCUUAU [JL TOV1 3.48] (Eterna round: R97, puzzle: Sensor, turn-off variant 1)	109 nM	169 nM	–	–	–	–
AAAUCUGAGGAGGAUAUGGUAUAGGAAAUGGUGCCAGAAGGUUUCACAUGAGGAUCACCCAUGUCAAAUAGUGA [EX6 #63] (Eterna round: R97, puzzle: Exclusion 6)	45.7 nM	52.5 nM	–	–	–	–
AGCUAGUCAGGAUAUACGAAAAUGUCAGAAGCUGAGAAGGGACAUGAGGAUCACCCAUGUAGAAGGGACUAGCA [Diamond 37] (Eterna round: R96, puzzle: Exclusion 2)	–	–	–	48.7 nM	–	–
GUCAUCAAACAUGGGAUUAACAUGAGGAUCACCCAUGUUAACAAGUUUUUUGCUCGUCUUAUAAUAAGUUUGAUGAC [Antenna 10 - Jieux - Sensor, turn-off variant 1] (Eterna round: R97, puzzle: Sensor, turn-off variant 1)	7.6 nM	13 nM	–	–	–	–
GUAAACGCAGAGGAUAUAUCAGAUCAAAGCUGCAUAGAAGGCUGCACAUGAGGAUCACCCAUGUGGUCUUUAAU [Mat - Exclusion 6 - JL Mod - D3] (Eterna round: R97, puzzle: Exclusion 6)	203 nM	21 nM	–	–	–	–
